The results in this text go back to PMC10249625 (Biochemistry, 2023).

Assay [1] addresses hBIMEL (141–166) BH3 peptide (human). Kind of assay: native MS.
Assay [2] shares this target. Kind of assay: HDX-MS.

B1: Bcl-2 chimera (1–34 Bcl-2, 35–50 Bcl-XL, 93–207 Bcl-2) with a C-terminal 6His tag (domain or fragment)
chain: MAHAGRTGYDNREIVMKYIHYKLSQRGYEWDAGDDVEENRTEAPEGTESEPVVHLTLRQAGDDFSRRYRRDFAEMSSQLHLTPFTARGRFATVVEELFRDGVNWGRIVAFFEFGGVMCVESVNREMSPLVDNIALWMTEYLNRHLHTWIQDNGGWDAFVELYGPSMR
Consider B1, for which, in assay [1], the binding result is given as “binds”.

B2: Mcl-1 (172–327), untagged after thrombin cleavage of GST (domain or fragment, human (from the printed UniProt entry))
chain: GSGSDELYRQSLEIISRYLREQATGAKDTKPMGRSGATSRKALETLRRVGDGVQRNHETAFQGMLRKLDIKNEDDVKSLSRVMIHVFSDGVTNWGRIVTLISFGAFVAKHLKTINQESCIEPLAESITDVLVRTKRDWLVKQRGWDGFVEFFHVEDLEGG
Consider B2, for which, in assay [2], the binding result was “binds”.
